# Assay results reported in US20200181597A1, “Composition and Application of Arginine-depleting Agents for Cancer, Obesity, Metabolic Disorders, and Related Complications and Comorbidities” (THE HONG KONG POLYTECHNIC UNIVERSITY, priority 2018, published 2020).
# Columns and labels:
# [1] = DIO mice treated with N-ABD094-rhArg-Co^2+; format: in vivo, C57BL/6J male mice; conditions: 25-100U i.p., within 5 weeks, from 55 g, HFD continued
# Excerpt: Production of N-ABD094-rhArg-Co^2+ [SEQ ID NO: 50 (cobalt substituted)] is described in Example 32. C57BL/6J male mice with pre-existing diet-induced obesity (DIO) received i.p. injection of 25-100U N-ABD094-rhArg-Co^2+[SEQ ID NO: 50 (cobalt substituted)] for 5 weeks, while continuously being fed a HFD.
# [2] = Enzyme kinetics after metal ion substitution; format: biochemical
# Experimental: Wild type arginase typically includes a Mn^2+ metal ion (D′Antonio & Christianson, 2011, Biochemistry, 50:8018-27). […] Purified N-ABD094-rhArg (SEQ ID NO: 50) in 20 mM Tris-HCl buffer (pH 7.4) was mixed with 20 mM of different divalent metal ions (Mn^2+, Ni^2+ or Co^2+), and was incubated at 52-55° C. for 15-60 min and then buffer exchanged with PBS buffer (pH 7.4).
# Samples were subjected to enzyme activity and enzyme kinetic studies to determine the specific activity and catalytic efficiency (kcat/Km). Samples were applied to inductively coupled plasma atomic emission spectroscopy (ICP-OES, Agilent 700 Series ICP optical emission spectrometer) for quantitative analysis of metal content.
# [3] = test system: plasma arginine; experiment: Plasma arginine after single i.p. dose of N-ABD-rhArg (Biochrom 30); format: in vivo, BALB/c mice
# Experimental: FIG. 10 illustrates plasma arginine concentrations, measured using the Biochrom 30 Amino Acid Analyzer, of BALB/c mice after receiving intraperitoneal injection of a single dose of (A) 125U; (B) 250U; and (C) 500U of N-ABD-rhArg (SEQ ID NO: 49). N-ABD-rhArg (SEQ ID NO: 49) was injected at day 0.
# Fifteen female BALB/c mice (10 weeks of age) were used in this study. They were kept in groups of five per cage. A single dose of N-ABD-rhArg (SEQ ID NO: 49) (500 U, 250 U, and 125 U, respectively) was administered to the mice via i.p. injection. Blood samples were collected from the saphenous vein using heparinized capillary tubes, and were centrifuged at 800×g to obtain plasma. Sixteen microliters of plasma sample was subjected to measurement of L-arginine concentration using the Biochrom 30 Amino Acid Analyzer. […] In comparing with BHA (SEQ ID NO: 75) (FIG. 9), N-ABD-rhArg (SEQ ID NO: 49) can deplete arginine to a very low level in the mice for exceptionally longer period, which highlights the importance of the requirement for rational design of the fusion protein.
# [4] = test system: serum arginine; experiment: Serum arginine in 4T1 xenograft nude mice (Biochrom 30); format: in vivo; conditions: BDL: Below Detection Level
# Experimental: (§1) For the aggressive 4T1 breast cancer cell xenograft model studies, 10 female nude mice (11-12 weeks of age) were used. They were kept in groups of five per cage and provided food and water ad libitum. The 4T1 cancer cells were harvested by trypsinization and washed twice with 1×PBS and resuspended in 1×PBS for inoculation. The cancer cells (1×10^6 cells of 4T1) were injected subcutaneously into the left flank of the mice. […] They were injected with either 500U (3.2 mg, 230 μL) N-ABD-rhArg (SEQ ID NO: 49) or 1×PBS once per week. Blood samples were collected from the saphenous vein. Tumor size and the body weight of mice were monitored regularly. The tumor volume was estimated by the following equation: […]
# Importantly, 500U of the albumin-binding arginase N-ABD-rhArg (SEQ ID NO: 49) depleted arginine to a level below the detection limit of the Biochrom 30 Amino Acid Analyzer (3 μM) for at least 10 days in BALB/c mice (FIG. 10). Therefore, 500 U of N-ABD-rhArg (SEQ ID NO: 49) was administered via i.p. injection once per week to the 4T1 breast cancer xenograft nude mice for efficacy study.
# [5] = test system: 4T1 breast cancer xenograft; experiment: 4T1 breast cancer xenograft in nude mice; format: in vivo, female nude mice
# Experimental: as §1
# The mice were sacrificed after 16 days of cancer cell inoculation (i.e. 13 days after starting of the experiment) because of necrosis of tumor in the PBS-injected control group. After being sacrificed, tumors were collected from the mice and the weight of the tumor was measured. Lungs were also collected and washed with 1×PBS. The lungs were fixed in Bouin's solution overnight and washed with 1×PBS after fixation. Lung metastatic nodules were counted.
# [6] = test system: 4T1 breast cancer allograft; experiment: 4T1 breast cancer allograft study; format: in vivo, female nude mice
# Experimental: In another 4T1 breast cancer allograft study, female nude mice (5-6 weeks of age) were used. They were kept in groups of five per cage and provided food and water ad libitum. Cells of 4T1 breast cancer ([…]) were injected subcultuaneously into the right flank of the mice. […] There were one control group (n=8) and three experimental groups, including 500U PEGylated His-rhArg (SEQ ID NO: 101) (n=8), 500U N-ABD-rhArg (SEQ ID NO: 49) (n=6) and 250U N-ABD-rhArg (SEQ ID NO: 49) (n=8). Mice in the control group were injected with 1×PBS weekly. For the 500U ABD-rhArg group and the 250U ABD-rhArg group, mice were injected with 500U and 250U ABD-rhArg once a week, respectively; one group was injected with 500U PEG-rhArg once per week. The mice were sacrificed after 24 days of inoculation (i.e. 14 days after starting of experiment) because of necrosis of tumor in PBS control group. After sacrificing, the mice were dissected. Tumors were collected from the mice and measured their weight. Lungs were also collected and washed with 1×PBS. The lungs were fixed in Bouin's solution overnight and washed with 1×PBS after fixation. Lung metastatic nodules were counted.
# [7] = target: human serum albumin (HSA) (Homo sapiens, UniProt P02768); experiment: Binding to HSA on non-denaturing PAGE; conditions: fixed HSA titrated at various molar ratios
# Experimental: When ABD is fused to rhArg or BCA, it is important for the fusion protein to retain both the albumin binding capacity and the enzymatic activity. […] The reaction mixtures were analyzed in their native condition on non-denaturing PAGE where the proteins were separated by size and conformation.
# In FIG. 7, the mobility of each of HSA and N-ABD-rhArg (SEQ ID NO: 49) alone are shown in Lanes 2 and 3 of the non-denaturing PAGE, respectively (FIG. 7). A fixed amount of HSA (30 pmoles) was titrated against N-ABD-rhArg (SEQ ID NO: 49) at various molar ratios and the results are illustrated in Lanes 5-9. […] In FIG. 8, the mobility of each of HSA and BHA (SEQ ID NO: 75) alone are shown in Lanes 6 and 7 of the non-denaturing PAGE, respectively (FIG. 8). A fixed amount of HSA (60 pmoles) was titrated against BHA (SEQ ID NO: 75) at various molar ratios and the results are illustrated in Lanes 1-5.
# [8] = literature; cited from earlier work
molecule,measurement,setting,value
"N-ABD094-rhArg-Co^2+: cobalt-substituted N-ABD094-rhArg enzyme (protein, cobalt substituted; N-ABD094-rhArg, Synthesized in the Lab, cobalt-substituted N-ABD094-rhArg enzyme) MHHHHHHDEAVDANSLAEAKEAANAELDSYGVSDFYKRLIDKAKTVEGVEALKDAILAALPSGSNNNNNNGSGGMSAKSRTIGIIGAPFSKGQPRGGVEEGPTVLRKAGLLEKLKEQECDVKDYGDLPFADIPNDSPFQIVKNPRSVGKASEQLAGKVAEVKKNGRISLVLGGDHSLAIGSISGHARVHPDLGVIWVDAHTDINTPLTTTSGNLHGQPVSFLLKELKGKIPDVPGFSWVTPCISAKDIVYIGLRDVDPGEHYILKTLGIKYFSMTEVDRLGIGKVMEETLSYLLGRKKRPIHLSFDVDGLDPSFTPATGTPVVGGLTYREGLYITEEIYKTGLLSGLDIMEVNPSLGKTPEEVTRTVNTAVAITLACFGLAREGNHKPIDYLNPPK",bodyweight after treatment,[1],30 g
same,Km,[2],270 to 350 µM
same,kcat,[2],250 to 316 s⁻¹
"N-ABD-rhArg: albumin binding domain (ABD) fused N-terminally to recombinant human arginase I, SEQ ID NO: 49 (protein, N-ABD-rhArg, Synthesized in the Lab) MHHHHHHDEAVDANSLAEAKVLANRELDKYGVSDYYKNLINNAKTVEGVKALIDEILAALPSGSNNNNNNGSGGMSAKSRTIGIIGAPFSKGQPRGGVEEGPTVLRKAGLLEKLKEQECDVKDYGDLPFADIPNDSPFQIVKNPRSVGKASEQLAGKVAEVKKNGRISLVLGGDHSLAIGSISGHARVHPDLGVIWVDAHTDINTPLTTTSGNLHGQPVSFLLKELKGKIPDVPGFSWVTPCISAKDIVYIGLRDVDPGEHYILKTLGIKYFSMTEVDRLGIGKVMEETLSYLLGRKKRPIHLSFDVDGLDPSFTPATGTPVVGGLTYREGLYITEEIYKTGLLSGLDIMEVNPSLGKTPEEVTRTVNTAVAITLACFGLAREGNHKPIDYLNPPK",time serum arginine below detection limit (3 μM),[3]; single i.p. dose 125U,at least 3 days
same,time serum arginine below detection limit (3 μM),[3]; single i.p. dose 250U,at least 7 days
same,"Arginine Concentration (serum), individual mice 1-4","[4]; Day 6, 500 U once per week",0 (BDL) μM
same,"Arginine Concentration (serum), individual mice 1-4","[4]; Day 13, 500 U once per week",0 (BDL) μM
same,growth of 4T1 breast cancer xenograft,[5]; 500U once per week,inhibit the growth
same,Number of metastatic nodules found in lungs,"[5]; 500 U once per week, n = 4 (PBS control: 3)",0
same,% of metastasis free animals,"[5]; 500 U once per week, n = 4 (PBS control: 50%)",100%
same,estimated tumor volume vs control group,"[5]; 500U once per week, 12 days and 13 days after starting",significant difference
same,growth of 4T1 solid tumor,[6]; 250U once per week,did not inhibit the growth
same,growth of 4T1 solid tumor,[6]; 500U once per week,inhibited the growth of the aggressive 4T1 solid tumor significantly
same,metastasis nodules from the lungs vs control group,[6]; 500U once per week,very significantly reduced
same,binding to HSA (free HSA reduced in a proportional manner),[7],specific binding
"human arginase: unmodified human arginase (Georgiou et al.) (protein, UniProt P05089 1-322, looked up) Arginase-1: MSAKSRTIGIIGAPFSKGQPRGGVEEGPTVLRKAGLLEKLKEQECDVKDYGDLPFADIPNDSPFQIVKNPRSVGKASEQLAGKVAEVKKNGRISLVLGGDHSLAIGSISGHARVHPDLGVIWVDAHTDINTPLTTTSGNLHGQPVSFLLKELKGKIPDVPGFSWVTPCISAKDIVYIGLRDVDPGEHYILKTLGIKYFSMTEVDRLGIGKVMEETLSYLLGRKKRPIHLSFDVDGLDPSFTPATGTPVVGGLTYREGLYITEEIYKTGLLSGLDIMEVNPSLGKTPEEVTRTVNTAVAITLACFGLAREGNHKPIDYLNPPK",half-life / clearance in circulation,[8],a few minutes
